T1: Lag3 expressed on cells (recombinant CHO cells expressing Lag3; Lag3+ NFAT Jurkat effector cells) (human, UniProt P18627 29-525)
T1 sequence: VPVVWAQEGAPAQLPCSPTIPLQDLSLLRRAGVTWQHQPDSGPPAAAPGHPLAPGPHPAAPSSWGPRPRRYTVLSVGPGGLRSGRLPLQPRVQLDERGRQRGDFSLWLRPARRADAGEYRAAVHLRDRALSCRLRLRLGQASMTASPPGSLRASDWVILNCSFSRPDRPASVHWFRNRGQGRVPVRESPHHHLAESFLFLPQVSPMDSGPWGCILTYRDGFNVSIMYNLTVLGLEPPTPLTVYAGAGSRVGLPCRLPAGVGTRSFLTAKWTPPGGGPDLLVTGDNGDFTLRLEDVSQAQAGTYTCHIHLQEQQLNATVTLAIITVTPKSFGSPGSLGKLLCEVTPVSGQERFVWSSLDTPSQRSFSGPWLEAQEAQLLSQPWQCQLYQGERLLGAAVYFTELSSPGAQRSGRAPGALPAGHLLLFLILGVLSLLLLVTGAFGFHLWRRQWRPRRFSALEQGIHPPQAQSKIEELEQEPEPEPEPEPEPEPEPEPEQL

T2: biotinylated-Lag3 (UniProt P18627 23-450, limits assumed, biotinylated (site not stated))
T2 construct: also called LAG-3 (A375 MHC-II ELISA)
T2 sequence (looked up): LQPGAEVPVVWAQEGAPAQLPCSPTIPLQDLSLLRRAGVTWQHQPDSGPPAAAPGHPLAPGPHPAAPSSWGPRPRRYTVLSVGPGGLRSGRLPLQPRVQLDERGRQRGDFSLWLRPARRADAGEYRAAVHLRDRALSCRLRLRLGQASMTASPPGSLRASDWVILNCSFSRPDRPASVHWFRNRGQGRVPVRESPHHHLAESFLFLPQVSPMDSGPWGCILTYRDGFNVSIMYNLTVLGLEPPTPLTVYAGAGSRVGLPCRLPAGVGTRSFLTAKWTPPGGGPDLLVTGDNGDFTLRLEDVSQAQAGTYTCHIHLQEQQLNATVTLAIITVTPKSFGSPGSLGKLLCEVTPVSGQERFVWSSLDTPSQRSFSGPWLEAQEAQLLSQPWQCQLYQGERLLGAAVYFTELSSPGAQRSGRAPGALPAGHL


Tests used:
[1] = biological target: T3, cynomolgus Lag3 on cells (HEK293F cells transiently transfected with cyno-LAG-3); activated cynomolgus PBMC/T … (cynomolgus); test: flow cytometry on CD3/CD28-activated cynomolgus PBMC, antibody at 10 ug/ml
T3 construct: whole, on cells
Method: Thus, cynomolgus peripheral blood mononuclear cells (PBMC) were prepared from fresh cynomolgus blood and were then activated by CD3/CD28 pre-treatment (1 μg/ml) for 2-3 days. […] After staining, cells were washed two times with PBS/2% FCS and analyzed on a FACS Fortessa (BD).

[2] = biological target: T1, Lag3 expressed on cells (recombinant …); test: cell-based or functional assay
biotinylated-Lag3 = biological target: T2, biotinylated-Lag3; test: competition cell ELISA: antibody pre-incubated with biotinylated Lag3, binding to MHC-II on A375 cells
Method: 25 μl/well of A375 cells (10000 cells/well) were seeded into tissue culture treated 384-well plates (Corning, 3701) and incubated at 37° C. overnight. […] After washing (1×90 μl in PBST) cells were fixed by addition of 30 μl/well glutaraldehyde to a final concentration of 0.05% (Sigma Cat.No: G5882), 10 min at room temperature. After washing (3×90 μl/well with PBST-buffer) 25 μl/well Poly-HRP40-Streptavidin (Fitzgerald, 65R-S104PHRPx) was added in a 1:2000 or 1:8000 dilution and incubated at RT for 1 h. After washing (3×90 μl/well with PBST-buffer) 25 μl/well TMB substrate (Roche, 11835033001) was added and incubated for 2 to 10 min. Measurement took place on a Tecan Safire 2 instrument at 370/492 nm.

Binder | percentage of Lag3 positive cells [1] | EC50 [nM] in Jurkat LAG3 + SED + Raji, 1st assay [2] | EC50 [nM] in Jurkat LAG3 + SED + Raji, 2nd assay [2] | EC50 [nM] in Jurkat LAG3 + SED + Raji, 3rd assay [2] | IC50 (biotinylated-Lag3)
aLAG3(0411) (antibody, V domains shown, also called aLAG3 (411)) VH: EVHLLESGGGLVQPGGSLRLSCAASGFIVDDYTMNWVRQAPGKGLEWVSVISWDGGATYYADSVKGRFTISRDDFKNTLYLQMNSLRAEDTAVYYCAKGLTDDTLYGSDYWGQGTLVTVSS VL: DIQMTQSPSSLSASVGDRVTITCRASQSIVSYLNWYQQKPGKAPKLLIYASSSLQSGVPSRFSGSGSGTDFTLTISSLQPEDFATYYCQQTYSTPLTFGGGTKVEIK | 46.6% | 1.1 nM | 1 nM |  | 
aLAG3(0416) (antibody, V domains shown, also called aLAG3 (416)) VH: EVQLVESGGGLVQPGGSLRLACAASGFTFSDYAMSWVRQAPGKGLEWVSGIDNSGYYTYYTDSVKGRFTISRDDVKNTLYLQMNSLRAEDTAVYLCTKTHSGLIVNDAFDIWGQGTMVTVSS VL: DIQLTQSPSSLSASVGDRVTITCRASQSISSYLNWYQQKPGKAPKLLIYDASSLESGVPSRFSGSGSGTDATLTISSLQPEDFATYYCQQSYSTPLTFGGGTKVEIK | 38.9% | 3.1 nM | 2.5 nM | 3.5 nM | 
aLAG3(0414) (antibody, V domains shown, also called aLAG3 (414)) VH: EVQLLESGGGLVQPGGSLRLSCAASGFIFDDYTMNWVRQAPGKGLEWVAVISWDGGGTYYTDSVKGRFTISRDDFKNTLYLQMNSLRAEDTAVYYCAKGLTDTTLYGSDYWGQGTLVTVSS VL: DIQMTQSPSSLSASVGDRVTITCRASQSISSYLNWYQQKPGKAPKLLIYAASTLQSGVPSRFSGSGSGTDFTLTISSLQPEDFATYYCQQTYSSPLTFGGGTKVEIK | 43% | 1.1 nM | 1 nM | 1.8 nM | 
MDX25F7 (25F7) (antibody, V domains shown, also called Medarex 25F7) VH: QVQLQQWGAGLLKPSETLSLTCAVYGGSFSDYYWNWIRQPPGKGLEWIGEINHNGNTNSNPSLKSRVTLSLDTSKNQFSLKLRSVTAADTAVYYCAFGYSDYEYNWFDPWGQGTLVTVSS VL: EIVLTQSPATLSLSPGERATLSCRASQSISSYLAWYQQKPGQAPRLLIYDASNRATGIPARFSGSGSGTDFTLTISSLEPEDFAVYYCQQRSNWPLTFGQGTNLEIK | 22.1% |  | 8.6 nM |  | 

The next lines start with the values.

percentage of Lag3 positive cells [1] | EC50 [nM] in Jurkat LAG3 + SED + Raji, 1st assay [2] | EC50 [nM] in Jurkat LAG3 + SED + Raji, 2nd assay [2] | EC50 [nM] in Jurkat LAG3 + SED + Raji, 3rd assay [2] | IC50 (biotinylated-Lag3) | Binder
35.3% | 1 nM |  |  |  | aLAG3(0417) (antibody, V domains shown, also called aLAG3 (417)) VH: EVQLVESGGGLVQPGGSLRLACAASGFTFSDYAMSWVRQAPGKGLEWVSGIDNSGYYTYYTDSVKGRFTISRDDVKNTLYLQMNSLRAEDTAVYLCTKTHSGLIVNDAFDIWGQGTMVTVSS VL: not shown
50.7% |  | 22.6 nM |  | 1 nM | humanized BAP050 (LAG525) (antibody, V domains shown) VH: QIQLVQSGPELKKPGETVKISCKASGFTLTNYGMNWVRQTPGKGLKWMGWINTDTGEPTYADDFKGRFAFSLETSASTASLQINNLKNADTATYFCARNPPYYYGTNNAEAMDYWGQGTTVTVSS VL: DIQMTQTTSSLSASLGDRVTISCSSSQDISNYLMWYQQKPDGTVKVLIYYTSTLHLGVPSRFSGSGSGTDYSLTISNLELEDIATYYCQQYYNLPWTFGQGTKVEIK
18.6% |  |  |  |  | BMS-986016 (antibody, V domains shown) VH: QVQLQQWGAGLLKPSETLSLTCAVYGGSFSDYYWNWIRQPPGKGLEWIGEINHRGSTNSNPSLKSRVTLSLDTSKNQFSLKLRSVTAADTAVYYCAFGYSDYEYNWFDPWGQGTLVTVSS VL: EIVLTQSPATLSLSPGERATLSCRASQSISSYLAWYQQKPGQAPRLLIYDASNRATGIPARFSGSGSGTDFTLTISSLEPEDFAVYYCQQRSNWPLTFGQGTNLEIK
44.2% |  |  |  |  | aLAG3(0403) (antibody, V domains shown, also called anti-Lag3 aLAG3 (0403)) VH: EVQLLESGGGLVQPGGSLRLSCAASGFTFDDYTMHWVRQAPGKGLEWVSLVSWDGGGTYYTNSVKGRFTISRDNSKNTLYLQMNSLRAEDTAVYFCAKAITDTSLYGYDYWGQGILVTVSS VL: not shown

From patent publication US20250313629A1 (Hoffmann-La Roche, published 2025)
